{"source": "patent US20190345207A1", "about": "(Pieris, published 2019)", "target": "T1, cynomolgus LAG-3 on CHO cells stably transfected with cyLAG-3 (CHO-cyLAG-3) (cynomolgus monkey)", "T1 construct": "whole, on cells; also called CHO::cynomolgus LAG-3", "assay": "FACS on transfected CHO cells", "protocol": "To perform the experiment, LAG-3-positive and negative Flp-In CHO cells were incubated with lipocalin muteins, and bound mutein was labeled using fluorescently labeled anti-hTlc antibodies, and then the signal was detected using FACS analysis as described in this example.\n5×10⁴ cells per well were pre-incubated for 1 h in ice-cold PBS containing 5% fetal calf serum (PBS-FCS). […] Cells were subsequently washed and analyzed using a intellicyt IQue Flow cytometer (Intellicyt). Fluorescent data generated by lipocalin mutein binding to LAG-3 expressing cells were analyzed by gating for LAG-3 expressing CHO cells and using Forecyt@ software and resulted geometric fluorescent mean were plotted and fitted using Graphpad software."}
{"binder": "benchmark anti-LAG-3 antibody (SEQ ID NOs: 5 and 6) (antibody, human IgG4 S228P, kappa, V domains shown, also called benchmark antibody) VH: QVQLQQWGAGLLKPSETLSLTCAVYGGSFSDYYWNWIRQPPGKGLEWIGEINHRGSTNSNPSLKSRVTLSLDTSKNQFSLKLRSVTAADTAVYYCAFGYSDYEYNWFDPWGQGTLVTVSS VL: EIVLTQSPATLSLSPGERATLSCRASQSISSYLAWYQQKPGQAPRLLIYDASNRATGIPARFSGSGSGTDFTLTISSLEPEDFAVYYCQQRSNWPLTFGQGTNLEIKR", "values": [{"measurement": "EC50", "result": 46.8, "unit": "nM"}]}
